Laboratory results: PMC7206793 (Science (New York, N.Y.), 2019)

B1: casein kinase 1 ε (on the human protein microarray) (natural protein, UniProt P49674 1-416, looked up)
chain: MELRVGNKYRLGRKIGSGSFGDIYLGANIASGEEVAIKLECVKTKHPQLHIESKFYKMMQGGVGIPSIKWCGAEGDYNVMVMELLGPSLEDLFNFCSRKFSLKTVLLLADQMISRIEYIHSKNFIHRDVKPDNFLMGLGKKGNLVYIIDFGLAKKYRDARTHQHIPYRENKNLTGTARYASINTHLGIEQSRRDDLESLGYVLMYFNLGSLPWQGLKAATKRQKYERISEKKMSTPIEVLCKGYPSEFSTYLNFCRSLRFDDKPDYSYLRQLFRNLFHRQGFSYDYVFDWNMLKFGAARNPEDVDRERREHEREERMGQLRGSATRALPPGPPTGATANRLRSAAEPVASTPASRIQPAGNTSPRAISRVDRERKVSMRLHRGAPANVSSSDLTGRQEVSRIPASQTSVPFDHLGK
B2: Flag (N-terminus)- and V5 (C-terminus)-tagged recombinant human Lmbr1l protein (natural protein, UniProt Q6UX01 1-489, looked up)
chain: MEAPDYEVLSVREQLFHERIRECIISTLLFATLYILCHIFLTRFKKPAEFTTVDDEDATVNKIALELCTFTLAIALGAVLLLPFSIISNEVLLSLPRNYYIQWLNGSLIHGLWNLVFLFSNLSLIFLMPFAYFFTESEGFAGSRKGVLGRVYETVVMLMLLTLLVLGMVWVASAIVDKNKANRESLYDFWEYYLPYLYSCISFLGVLLLLVCTPLGLARMFSVTGKLLVKPRLLEDLEEQLYCSAFEEAALTRRICNPTSCWLPLDMELLHRQVLALQTQRVLLEKRRKASAWQRNLGYPLAMLCLLVLTGLSVLIVAIHILELLIDEAAMPRGMQGTSLGQVSFSKLGSFGAVIQVVLIFYLMVSSVVGFYSSPLFRSLRPRWHDTAMTQIIGNCVCLLVLSSALPVFSRTLGLTRFDLLGDFGRFNWLGNFYIVFLYNAAFAGLTTLCLVKTFTAAVRAELIRAFGLDRLPLPVSGFPQASRKTQHQ

Tests used:
[1] = target: B2; test: peptide or protein array
[2] = target: T1, β-catenin (on the human protein microarray) (human, UniProt P35222 1-781); test: peptide or protein array
T1 sequence (looked up): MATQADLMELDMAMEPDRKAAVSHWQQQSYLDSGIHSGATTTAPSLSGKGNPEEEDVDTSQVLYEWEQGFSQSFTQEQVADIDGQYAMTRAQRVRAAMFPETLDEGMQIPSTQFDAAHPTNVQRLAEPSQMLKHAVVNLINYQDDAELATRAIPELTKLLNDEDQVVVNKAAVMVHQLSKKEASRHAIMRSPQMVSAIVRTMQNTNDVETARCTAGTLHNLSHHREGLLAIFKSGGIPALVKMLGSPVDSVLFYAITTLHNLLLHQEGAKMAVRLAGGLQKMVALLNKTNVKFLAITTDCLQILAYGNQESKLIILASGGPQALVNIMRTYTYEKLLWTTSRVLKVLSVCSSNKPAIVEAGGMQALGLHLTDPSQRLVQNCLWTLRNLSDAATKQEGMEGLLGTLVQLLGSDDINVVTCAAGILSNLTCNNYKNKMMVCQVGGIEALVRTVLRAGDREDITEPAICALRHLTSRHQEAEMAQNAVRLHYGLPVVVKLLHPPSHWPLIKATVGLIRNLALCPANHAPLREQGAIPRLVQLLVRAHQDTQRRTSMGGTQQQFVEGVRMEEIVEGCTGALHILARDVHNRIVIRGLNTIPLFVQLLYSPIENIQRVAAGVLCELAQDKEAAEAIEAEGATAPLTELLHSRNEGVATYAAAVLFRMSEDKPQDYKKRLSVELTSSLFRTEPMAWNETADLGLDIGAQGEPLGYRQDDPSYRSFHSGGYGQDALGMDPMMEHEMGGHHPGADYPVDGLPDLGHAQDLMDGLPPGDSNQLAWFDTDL

binding result [1] | binding result [2] | Binder
binds |  | B1
 | binds | B2
